The values that follow come from patent publication US20260274928A1.

In the experiment the target is 13-strain panel of SARS-CoV-2 variant lineages (RBDs). The experiment can be described thus: SPR, Fab on captured His-AviTag RBD, single-cycle kinetics. (In general: Surface plasmon resonance follows binding to a sensor surface in real time, without labels.)

B1: S2V29-v37.2 Fab (Fab, V domains shown)
VH: EVQLVESGGSVVQPGRALRLSCAASGITFSSFGMYWVRQAPGKGLEWLGYIAYDGSDTYYADSVKGRFTISRDNSKNTLYLQMNSLRIEDTAVYYCAKDYYPLLSYYYGLDVWGQGTTVTVSS
VL: QSVLTQPRSVSGSPGQSVTISCTGTSSDVGAYNYVSWYQQHPGKAPKFMIYDVDQRPSGVPDRFSGSKSGNTASLIISGLQAEDEADYYCSSYAGSYIWVFGGGTQLTVL
In turn, B1 came in with a Kd of 0.05 to 5 nM and a median KD of 0.26 nM.

In general, Kd refers to the free concentration of one partner at which half of the binding sites on the other are occupied at equilibrium, for simple one-to-one binding. A high value points to a looser complex.
